Experiment: label from the status in PepcDB records
With “RSTIGAGQKVNVEFVSANPTGPMHVGHVRGAVVGDALARLLAYAGWNVTREYYINDGGAQVDVLARSAFERYREAHGLEPEIREGLYPGDYLIPVGEALKAKYGDSLLDKGEQHWLTEVREFATEMMMQMIREDLAALGVEMDVYSSEKALYGTGKIEAALDRLKEMDLIYEGVLEPPKGKTPEDWEPREQTLFRSTAHGDDVDRPVKKSDGSWTYFAPDIAYHYDKVTRGFDQLIDIFGADHGGYVKRMKAAVAALSAGRVPLDIKLIQLVKLWKNGEPFKMSKRAGTYVTLRDVVEQVGTDVTRFVMLTRKNDATLDFDFDKVLEQSKENPVFYVQYANARINSVLRKAREQGMDVSDA” the protein production was “failed”. For “RTKDGLTLYTRRWDVESPRAVICLVHGLGEHSGRYEHVARFFNENGISFAAFDLRGHGRSEGKRGHAEYQQLMDDITLFLQSLDYDCPKILYGHSMGGNLALNYILRYDPDIAGGIISAPFLALPKELPKHLFFILKLLNVVAPSIQLSNGIDPNLISRDREVVEAYVSDPLVHDKISPRFILQSLEAGKWALENADRLRKPILLIHGTADQITSYRASQEFAKRAGELCKFVSYEGFYHEPHNEPEKERVLADMLKWIEEVI”, the protein production was “failed”. In the case of “RTSYLEFNQRDKNSPYNNVNLRKAISAAIDRNALVDKILGDGSVVATGLIPEGMSYSPTDDTDFADENKKIVEYSPEKAKEYWAKAKKELGITTLKMDIVADDVDSTKKLAEYIQGTLKDTLEGIDVTVSPVPFSVRIDRGSRGDFETILGGWAADYADPSSFLDLFVTGNNYNRGRFSSKAYDELIEASATRDASDPEKRWEDMVKAEKLLIGEETALAPLYQKA”, the protein production was “failed”. In the case of “RVTVMLAAFEGWNDAGEAASDALHYLNKLWDGKKVATVDAEEYYDFQFTRPTVRRTSSGARKVKWPSTRIYKAEVPDSNVDVVLVLGTEPSYRWRAYTTELLVHAEALKVDSVILVGALLADVPHSRPIPVSTTTEDSSLRERLNLEASQYEGPVGIVGVLAEFAMLAGLPTVSLWAAVPHYVAQPPSPKAQLAILHRIEDLLQVPLDSQALAEESEAWERGVDELATEDPEITAYVRQLEEAKDTADLPE”, the protein production was “not failed”. For “RYENILLPTDGSEGADLAIEWGITLAEIYDATVHTLYSVDTSRFGGVEGSAEIHDALEETGQEALETVHERARDADVSIAGNIASGPAARAILSYSEEHDIDLIAMGTHGRSGLTRYLTGSVTETVVRNAAVPVCCVPMQ”, the protein production was “failed”. In the case of “RYGGDSTMIEMAFNKILIYAFGQFSAYSVWFDNNYLNIVDTIPGYGVFTGVVSKIFDFDRVSGFYDSFTYISNEDYTNVFTLSR”, the protein production was “failed”. With “RYREGLSEALKEPEAKDPGFLERLVALYEEGGEDLLTPPGRVDVRVGEVEGLALVQAGFQKGEWLGELTLIGPLRMRYAEALSVAFSLSQVYTGQHAD” the protein production was “failed”. For “SAAETRNVAGAEAPPPQKRYYRQRAHSNPMADHTLRYPVKPEEMDWSELYPEFFAPLTQNQSHDDPKDKKEKRAQAQVEFADIGCGYGGLLVELSPLFPDTLILGLEIRVKVSDYVQDRIRALRAAPAGGFQNIACLRSNAMKHLPNFFYKGQLTKMFFLFPDPHFKRTKHKWRIISPTLLAEYAYVLRVGGLVYTITDVLELHDWMCTHFEEHPLFERVPLEDLSEDPVVGHLGTSTEEGKKVLRNGGKNFPAIFRRIQDPVLQAVTSQTSLPGH”, the protein production was “not failed”. In the case of “SAAVKDSCGKGEMATGNGRRLHLGIPEAVFVEDVDSFMKQPGNETADTVLKKLDEQYQKYKFMELNLAQKKGRLKGQIPEIKQTLEILKYMQKKKESTNSMETRFLLADNLYCKASVPPTDKVCLWLGANVMLEYDIDEAQALLEKNLSTATKNLDSLEEDLDFLRDQFTTTEVNMARVYNWDVKRRNKDDSTKNKA”, the protein production was “not failed”. For “SAPPKQSWEQAVDTLRDIGALNAAGQITELGRTLATLPTDPRLGASLLHCGGGAAPTIAALSLDARGDIPRAIAAMSHQQRFTREVARLAGFVP”, the protein production was “failed”. In the case of “SASKRWSPPRGIHFTVEEGDLGFTLRGNTPVQVHFLDPHCSASLAGAKEGDYIVSIQGVDCKWLTVSEVMKLLKSFGGEEVEMKVVSLLDSTSSMHNK”, the protein production was “not failed”. With “SAVDCPQHCDSSECKSSPRCERTVLDDCGCCRVCAAGRGETCYRTVSGMDGMKCGPGLRCQPSNGEDPFGEEFGICKDC” the protein production was “failed”. For “SAVSARLRTTAEDTSIAKSTQDPIGDTEISVANAKGSSDSNIKNSPGGNSVGQESELEHVPEEDDSGDKEADHEDSETATAKKRKAQPLKNPKKSLKRGRVPAPLNLSDSNTNTHGGNIKDGNLASSNSAHFPPVANQNVKSAPAQVTQHSKFQPRVQYLGKASSRQSIQVNNSSNSYGKPHMPSAGIMSAMNPYMPMNRYIMSPYYNPYGIPPPHMLNKPIMTPYVSYPYPMGPRTSIPYAMQGGNARPYEENEYSASNYRNKRVNDSYDSPLSGTASTGKTRRSEEGSRNSSVGSSANAGPTQQRADLRPADMIPAEEYHFERDALLSANTKARSASTSTSTSTSTNRDRSSWHEAEPNKDEEEGTDLAIEDGAVPTPTFTTFQRTSQPQQQSPSLLQGEIRLSSHIFAFEFPLSSSNVDKKMFMSICNKVWNESKELTKKSSSHHRTGK”, the protein production was “failed”. With “SDDNKTTGATYDPNQPVTVESFMPVEGKLREKVIVKGSNFGTDKSKVKVYFVDEAAERLSTVIGIDNNTLYCLAPRQLPGGNRIKVIVDGKEVTTDGTFKYEQAQNVSTISGSASKDGNDDGDLASAKFKYMWGIAAVGNNTVLAYQRDDPRVRLISVDDNKVTTVHPGFKGGKPAVTKDKQRVYSIGWEGTHTVYVYMKASGWAPTRIGQLGSTFSGKIGAVALDETEEWLYFVDSNKNFGRFNVKTQEVTLIKQLELSGSLGTNPGPYLIYYFVDSNFYMSDQNLSSVYKITPDGECEWFCGSATQKTVQDGLREEALFAQPNGMTVDEDGNFYIVDGFKGYCLRKLDILDGYVSTVAGQVDVASQIDGTPLEATFNYPYDICYDGEGGYWIAEAWGKAIRKYAVE” the protein production was “not failed”. For “SDILKDPPSEANSIQSANATTKTSETNHTSRPRLKNVDRSTAQQLAVTVGNVTVIITDFKEK”, the protein production was “failed”. With “SDISLLLDVANAACHKGHVADARSIYEGVLAVRPGFAPARLGQALSHAVVNEFAEAERIINEEVLAEAPEDTDAKALLGLTYFLAGRDEEARDVLRPVAEGDTPAAYVARG” the protein production was “failed”. For “SDLPDSASRVFCGRILSMVNTDDVNAIILAQKNMLDRFEKTNEMLLNFNNLSSARLQQMSERFLHHTRTLVEMKRDLDSIFRRIRTLKGKLARQHPEAFSHIPEASFLEEEDEDPIPPSTTTTIATSEQSTGSCDTSPDTVSPSLSPGFEDLSHVQAGSPAINGRSQTDDEEMTGE”, the protein production was “failed”. With “SDQTRYSRLANITKIINTKLELREVLQRVTMAISEEIVRCDAVGIYLPEEDGTFRGFAGKPETINGVTLDTQVIDPGIDLLAKEVIETKKTIYIPDTSKDYRPDPRPVDAFKIKSLLALPISFGQELFGLVFLFDYGVPMNLTDSEIQSVEAYVNMAAVAIQNAKNLTQKENLIAEKQLLLNVTRDLSVCSS” the protein production was “failed”. In the case of “SDSRPAVLDLIGNTPLVRVTRFDTGPCTLYLKLESQNPGGSIKDRIGVAMIEAAERDGRLRPGGTIVEATAGNTGLGLALVGRAKGYRVVLVVPDKMSTEKVLHLRAMGAEVHITRSDVGKGHPEYYQDVAARLAQDIPGAFFADQFNNPANPLAHECGTGPELWAQTGHDLDAIVVGVGSSGTLTGLTRFFQKVQPELEMVLADPEGSIMAEYSRSGTLGTPGSWAVEGIGEDFVPAIADLSSVRHAYSISDEESFAMARELLRVEGIPGGSSTGTLLAAALRFCREQKEPKRVVSFVCDTGTRYLSKIYNDQWMTDQGLLQRKHYGDLRDIIARRFEEGRVISVGPDDTLLTAFQRMRLADVSQLPVLDDGKLVGVIDESDILLGVHADAPRFRDAVSSAMNAAPETLAPGASLAQLQAVLDRGLVAIVADASGFHGLITRFDLL”, the protein production was “failed”. For “SEDPVFTFGLIADVQYADIEDGENYLRTRRRYYRGSADLLRDAVLQWRRERVQCVVQLGDIIDGHNRRRDASDRALDTVMAELDACSVDVHHVWGNHEFYNFSRPSLLSSRLNSAQRTGTDTGSDLIGDDIYAYEFSPAPNFRFVLLDAYDLSVIGREEESEKHTHSWRILTQHNHNLQDLNLPPVSVGLEQRFVKFNGGFSEQQLQWLDAVLTLSDHKQERVLIFSHLPVHPCAADPICLAWNHEAVLSVLRSHQSVLCFIAGHDHDGGRCTDSSGAQHITLEGVIETPPHSHAFATAYLYEDRMVMKGRGRVEDLTITYS”, the protein production was “not failed”. For “SEEDDEVVAMIKELLDTRIRPTVQEDGGDVIYRGFEDGIVRLKLQGSCTSCPSSIITLKSGIQNMLQFYIPEVEGVEQV”, the protein production was “not failed”.

— a protein production outcome set (Wang et al. 2014)
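Also: failed if final PepcDB status was selected cloned or expressed and not failed if soluble or beyond.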
